Measurements as given in patent US11202837B2, “Biological materials and uses thereof” (Antikor Biopharma Limited, priority 2014, dated 2021).
Read-outs that look alike come from different tables or passages of the source.

Experiments:
HER2 = HER2 (Homo sapiens, UniProt P04626); test: Biacore SPR binding to immobilised HER2; conditions: immobilised HER2
Experimental: The binding affinity against immobilised HER2 target antigen was determined by Biacore SPR compared to the unmodified scFv on a Biacore T200. A standard amine-coupling method was used to prepare all Biacore surfaces (CM5 or CM3), as follows. Flow cells were activated individually by injecting a freshly mixed solution of 0.2M EDC in 0.05 M NHS at 30 μl/min. […] Excess NHS ester was deactivated using a 1 M ethanolamine solution. To measure the kinetics of the antibody and conjugate on the HER2 chip, a […] serial dilution (typically at 5, 2.5, 1.25, 0.6 μg/ml or lower for free antibody and 20, 10, 5, 2.5 μg/ml for the conjugates), was injected for 160 s at 30 μl/min, allowing a 900-s dissociation phase. The dissociation time was extended to 3600 s for the highest concentration. Surfaces were regenerated with 45 s injection of MgCl2 8M.
To evaluate binding ability, manual runs were performed at 30 μl/min with a 60 s injection of the desired compound followed by 60 s waiting time and a 45 s of regeneration at 10 μl/min using MgCl2 8M. All data was analysed using the software, BIAEvaluation.

[1] = Aggregation by HPLC size-exclusion chromatography; format: physicochemical; conditions: for aggregation by HPLC-SEC (in words): purified or analysed conjugate vs unconjugated antibody
Experimental: Aggregation can be tested by analytical size-exclusion HPLC measuring the percentage of high molecular weight material compared to the conjugate eluting at a retention time characteristic of a monomeric conjugate.
Typically, 20 μg of protein was injected for analytical runs and 300 μg for semi-preparative runs.

BT474 cells = test: Cell killing assay (MTS), BT474 cells; format: cell-based, human; conditions: BT474 Cells (HER2++), 96 hours; for IC50: read-out: IC50
Experimental: (§1) The cells were recovered by centrifugation (2 min, 2000 rpm), the supernatant was discarded, and the cells were resuspended in complete McCoy's 5A (5 ml). The cells were then counted using a haemocytometer and diluted accordingly. They were plated at 5000 cells/well (200 μl) using attachment factor and incubated overnight at 37° C., 5% CO2 in a humidified atmosphere. U87 is a non-HER2 expressing glioblastoma cell line [Zitron I M et al (2013) BMC Cancer 13:83] and was grown in a similar way, plated at 1000 cells/well (using DMEM media). BT474 is a HER2 expressing breast cancer cell line [Brockhoff G et al (2007) Cell Prolif 40:488-507] and was grown in a similar way, plated at 7500 cells/well (using RPMI media). NCI-N87 is a HER2 expressing gastric cancer cell line [Yamashita-Kashima Y et al (2013) Oncol. Rep 30:1087-93] and was grown in a similar way, plated at 7500 cells/well (using RPMI media).
(§2) The cells were exposed to the various ADCs diluted in complete media for 96 hours at 37° C., 5% CO2 in a humidified atmosphere. Cell viability was measured using the Promega Aqueous Cell-titre-96™ aqueous one solution cell proliferation kit (MTS reagent) according to manufacturer's instructions. Briefly, the media was removed and 100 μl of complete phenol red free media, pre-combined with MTS reagent, was added to the cells (20 μl of reagent per 100 μl of media). The plates were read on an ELISA plate reader at 490 nm after a 2 hr incubation in the dark (5% CO2, 37° C.).
(§3) The data (absorption units) were converted to % cell survival by using the untreated controls as the 100% cell survival and the Triton X-100 controls as the 100% cell death. The average absorption value for the latter was subtracted from all the rest of the data in order to get a suitable baseline. The averages were converted to survival and standard error values were obtained for each n value (as a % cell survival). […] Experiments were repeated at least 3 times for each compound tested and a set or an average of the data was plotted and fitted to obtain a dose-response curve.

SKBr3 cells = test: Cell killing assay (MTS), SKBr3 cells; format: cell-based, human; conditions: SKBr3 Cells (HER2+++), 96 hours; for IC50: read-out: IC50
Experimental: (§4) SKBr3, human breast cancer cell line, high HER2 expression levels, up to 1,000,000 receptors per cell [Lazar G A, et al Proc Natl Acad Sci USA. […] When confluency was 70-80%, cells were washed with PBS (2×10 ml) and incubated with trypsin for 5-7 min. Complete media was added and the cells were resuspended by pipetting. The cells were recovered by centrifugation (2 min, 2000 rpm), the supernatant was discarded, and the cells were resuspended in complete DMEM (5 ml). The cells were then counted using a haemocytometer and diluted accordingly. They were plated at 4500 cells/well (200 μl) using attachment factor and incubated overnight at 37° C., 5% CO2 in a humidified atmosphere. U87 is a non-HER2 expressing glioblastoma cell line and was grown in a similar way, plated at 1000 cells/well.
as §2, with “The cells were exposed to the various ADCs diluted in complete media for 96 hours at 37° C., 5% CO2 in a humidified atmosphere.” left out, “kit” for “kit (MTS reagent)”
as §3, with “dose response” for “dose-response”
as §1
as §2, with “The cells were exposed to the various ADCs diluted in complete media for 96 hours at 37° C., 5% CO2 in a humidified atmosphere.” left out
(§5) The data (absorption units) were converted to % cell survival by using the untreated controls as the 100% cell survival and the Triton X-100 controls as the 100% cell death. The average absorption value for the latter was subtracted from all the rest of the data in order to get a suitable baseline. The averages were converted to survival and standard error values were obtained for each n value (as a % cell survival).

NCI-N87 cells = test: Cell killing assay (MTS), NCI-N87 cells; format: cell-based, human; conditions: NCI-N874 Cells (HER2++), 96 hours, Table 49
Experimental: as §1, §2, §3

U87 cells = test: Cell killing assay (MTS), U87 cells; format: cell-based; conditions: U87 Cells (HER2−), 96 hours, Table 46
Experimental: as §4
as §2, with “kit” for “kit (MTS reagent)”
as §3, with “dose response” for “dose-response”
as §1, §2, §5

B1: scFv (TCT)-Acetate DAR 15 (conjugate)
scFv: SGSGGSGQVQLVQSGAEVKKPGESLKISCKGSGYSFTSYWIAWVRQMPGKGLEYMGLIYPGDSDTKYSPSFQGQVTISVDKSVSTAYLQWSSLKPSDSAVYFCARHDVGYCSSSNCAAWPEYFQHWGQGTLVTVSSGGGGSGGGGSGGGGSQSVLTQPPSVSAAPGQKVTISCSGSSSNIGNNYVSWYQQLPGTAPKLLIYGHTNRPAGVPDRFSGSKSGTSASLAISGFRSEDEADYYCAAWDDSLSGWVFGGGTKLTVLMASMTGGQQMG
Which results are given for B1?
association rate (HER2): 5.93e+06 M⁻¹ s⁻¹; dissociation rate (HER2): 0.0171 s⁻¹; aggregation by HPLC-SEC (in words) [1]: no aggregation

B2: scFv (TCT)-MMAF-C5 1 DAR 5.6 (conjugate)
scFv: B1 scFv
Which association rate (HER2) does the source give for B2 here?
Its association rate is 770000 M⁻¹ s⁻¹.

And the dissociation rate (HER2)?
Its dissociation rate is 0.0042 s⁻¹.

What about the “aggregation by HPLC-SEC (in words)” value [1] of the same molecule?
Its value is “no aggregation”.

B3: scFv (TCT)-MMAF-C5 DAR 6.8 (conjugate)
scFv: B1 scFv
Which results are given for B3?
association rate (HER2): 1.2e+06 M⁻¹ s⁻¹; dissociation rate (HER2): 0.0042 s⁻¹; aggregation by HPLC-SEC [1]: 17%; aggregation by HPLC-SEC (in words) [1]: no aggregation

B4: scFv (TCT1067)-Acetate DAR 16 (conjugate)
scFv: SGSGGSGQVQLVQSGAEVKKPGESLKISCKGSGYSFTSYWIAWVRQMPGKGLEYMGLIYPGDSDTKYSPSFQGQVTISVDKSVSTAYLQWSSLKPSDSAVYFCARHDVGYCTDRTCAAWPEWLGVWGQGTLVTVSSGGGGSGGGGSGGGGSQSVLTQPPSVSAAPGQKVTISCSGSSSNIGNNYVSWYQQLPGTAPKLLIYGHTNRPAGVPDRFSGSKSGTSASLAISGFRSEDEADYYCASWDYTLSGWVFGGGTKLTVLMASMTGGQQMG
Which association rate (HER2) does the source give for B4 here?
Its association rate is 3.63e+06 M⁻¹ s⁻¹.

What about the dissociation rate (HER2) of the same molecule?
The dissociation rate was 7.64e-05 s⁻¹.

And the “aggregation by HPLC-SEC (in words)” value [1]?
The value was “no aggregation”.

B5: scFv (TCT1067)-DM1-dPEG12 DAR 8 (conjugate)
scFv: B4 scFv
What does the source list for B5?
association rate (HER2): 13200 M⁻¹ s⁻¹; dissociation rate (HER2): 3.28e-05 s⁻¹; aggregation by HPLC-SEC [1]: 4% aggregates

B6: scFv (TCT1067)-Auristatin F-C5, DAR 2.7 (conjugate)
scFv: B4 scFv
Which “IC50 μg/ml” value (BT474 cells; Table 49) does the source give for B6 here?
The value was 0.00115 µg/mL.

What about the IC50 (BT474 cells; Table 49) of the same molecule?
The IC50 was 0.0392 nM.

And the “IC50 μg/ml” value (SKBr3 cells; Table 49)?
Its value is 0.00089 µg/mL.

And the IC50 (SKBr3 cells; Table 49)?
The IC50 was 0.0317 nM.

And the “IC50 μg/ml” value (NCI-N87 cells)?
The value was 0.00087 µg/mL.

And the IC50 (NCI-N87 cells)?
Its IC50 is 0.0311 nM.

B7: scFv (TCT1067)-P5-C5 DAR 10.9 (conjugate)
scFv: B4 scFv
Which dissociation rate (HER2) does the source give for B7 here?
Its dissociation rate is 7.13e-05 s⁻¹.

And the “aggregation by HPLC-SEC (in words)” value [1]?
Its value is “no aggregation”.

B8: scFv (TCT1067)-MMAF-C5, DAR 6.4 (conjugate)
scFv: B4 scFv
What does the source list for B8?
IC50 μg/ml (BT474 cells; Table 46): 0.008 µg/mL; IC50 (BT474 cells; Table 46): 0.286 nM; IC50 μg/ml (SKBr3 cells; Table 46): 0.007 µg/mL; IC50 (SKBr3 cells; Table 46): 0.25 nM; IC50 μg/ml (U87 cells): >5 µg/mL

B9: scFv (TCT1067)-Auristatin F-C5, DAR 6.2 (conjugate)
scFv: B4 scFv
For B9, which “IC50 μg/ml” value (BT474 cells; Table 49) is on record?
The value was 0.00112 µg/mL.

What about the IC50 (BT474 cells; Table 49) of the same molecule?
Its IC50 is 0.0399 nM.

What about the “IC50 μg/ml” value (SKBr3 cells; Table 49) of the same molecule?
Its value is 0.00101 µg/mL.

What about the IC50 (SKBr3 cells; Table 49) of the same molecule?
The IC50 was 0.0361 nM.

And the “IC50 μg/ml” value (NCI-N87 cells)?
Its value is 0.00036 µg/mL.

What about the IC50 (NCI-N87 cells) of the same molecule?
Its IC50 is 0.0129 nM.

B10: scFv (TCT1067)-Auristatin F-C5, DAR 11.8 (conjugate)
scFv: B4 scFv
Which “IC50 μg/ml” value (BT474 cells; Table 49) does the source give for B10 here?
The value was 0.01082 µg/mL.

And the IC50 (BT474 cells; Table 49)?
Its IC50 is 0.386 nM.

And the “IC50 μg/ml” value (SKBr3 cells; Table 49)?
The value was 0.00844 µg/mL.

And the IC50 (SKBr3 cells; Table 49)?
Its IC50 is 0.299 nM.

And the “IC50 μg/ml” value (NCI-N87 cells)?
Its value is 0.0087 µg/mL.

And the IC50 (NCI-N87 cells)?
The IC50 was 0.31 nM.

B11: scFv (TCT1067)-DM1-dPEG12 DAR 7 (conjugate)
scFv: B4 scFv
What does the source list for B11?
association rate (HER2): 19500 M⁻¹ s⁻¹; dissociation rate (HER2): 2.7e-05 s⁻¹; aggregation by HPLC-SEC [1]: 1% aggregates
